Measurements published in patent US20260234223A1 (LEYDEN LABORATORIES B V, published 2026).

Target: SARS-CoV-2 Omicron BA.4 Spike (on pseudovirions) (SARS-CoV-2 Omicron BA.4)
Assay: cell-based or functional assay

B1: COV30-14 (antibody, V domains shown)
VH: QVQLVQSGAEVKKPGASVKVSCQTSGYTFTSYYMHWVRQAPGQGLEWMGLITPSGDDTYYAQRFQGRVTMTRDTSTSPTYMELSSLTSEDTAVYYCAKMSRAGGFDVWGQGTLVTVSS
VL: EVVLTQSPGTLSLSPGERATLSCRASQSITGRYLAWYQQKPGQAPRLLMYGESSRVTGIPDRFSGGGSGTDFTLTISRLEPEDFAVYYCQHFASSPPTYTFGQGTKLEIR
notes: also called the antibody according to the invention; the antibody according to invention
  Pseudovirion neutralization IC50 (geometric mean): 7.6 µg/mL
